In PMC9637641, “Regulation of factor V by the anticoagulant protease activated protein C: Influence of the B-domain and TFPIα” (The Journal of Biological Chemistry, 2022):

Tests used:
OG488-TFPIα-BR [1] = target: T1, OG488-TFPIα-BR (fluorescently labeled with OG488 (Oregon Green 488 maleimide)); test: fluorescence polarisation; steady-state fluorescence anisotropy; FV species or APCi titrated (0–100 nM) into 25 nM OG488-TFPIα-BR and 50 μM PCPS vesicles in HBS/Ca2+/PEG, pH 7.4 (20 mM Hepes, 150 mM NaCl, 5 mM CaCl2, 0.1% PEG-8000), 25 °C; fit to a model for tight binding; details: both partners purified
T1 construct: The labelled form stood in the anisotropy titrations; also called TFPIα-BR fragment; BR fragment; source: expressed in SUMO-pro bacteria (Life-Sensors), purified, fluorescently labeled with OG488
T1 sequence (P10646 268-293): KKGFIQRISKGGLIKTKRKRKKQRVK

OG488-TFPIα-BR [2] = target: T1, OG488-TFPIα-BR; test: cell-based or functional assay

- Kd (OG488-TFPIα-BR [1]): 1.56 nM
- stoichiometry N (OG488-TFPIα-BR [1]): 1.18 mol/mol
- Reduced fold change of inactivation by APC, +TFPIα-BR (kobs no BR divided by kobs +BR; % peak thrombin in TGA; 20 nM FV species, 250 nM BR fragment, 1 nM APC) (OG488-TFPIα-BR [2]): 14.2 fold
B1: FV-short (natural protein)
chain: AQLRQFYVAAQGISWSYRPEPTNSSLNLSVTSFKKIVYREYEPYFKKEKPQSTISGLLGPTLYAEVGDIIKVHFKNKADKPLSIHPQGIRYSKLSEGASYLDHTFPAEKMDDAVAPGREYTYEWSISEDSGPTHDDPPCLTHIYYSHENLIEDFNSGLIGPLLICKKGTLTEGGTQKTFDKQIVLLFAVFDESKSWSQSSSLMYTVNGYVNGTMPDITVCAHDHISWHLLGMSSGPELFSIHFNGQVLEQNHHKVSAITLVSATSTTANMTVGPEGKWIISSLTPKHLQAGMQAYIDIKNCPKKTRNLKKITREQRRHMKRWEYFIAAEEVIWDYAPVIPANMDKKYRSQHLDNFSNQIGKHYKKVMYTQYEDESFTKHTVNPNMKEDGILGPIIRAQVRDTLKIVFKNMASRPYSIYPHGVTFSPYEDEVNSSFTSGRNNTMIRAVQPGETYTYKWNILEFDEPTENDAQCLTRPYYSDVDIMRDIASGLIGLLLICKSRSLDRRGIQRAADIEQQAVFAVFDENKSWYLEDNINKFCENPDEVKRDDPKFYESNIMSTINGYVPESITTLGFCFDDTVQWHFCSVGTQNEILTIHFTGHSFIYGKRHEDTLTLFPMRGESVTVTMDNVGTWMLTSMNSSPRSKKLRLKFRDVKCIPDDDEDSYEIFEPPESTVMATRKMHDRLEPEDEESDADYDYQNRLAAALGIRSFRNSSLNQEEEEFNLTALALENGTEFVSSNTDIIVGSNYSSPSNIDLGQMPSPSSPTLNDTFLSKEFNPLVIVGLSKDGTDYIEIIPKEEVQSSEDDYAEIDYVPYDDPYKTDVRTNINSSRDPDNIAAWYLRSNNGNRRNYYIAAEEISWDYSEFVQRETDIEDSDDIPEDTTYKKVVFRKYLDSTFTKRDPRGEYEEHLGILGPIIRAEVDDVIQVRFKNLASRPYSLHAHGLSYEKSSEGKTYEDDSPEWFKEDNAVQPNSSYTYVWHATERSGPESPGSACRAWAYYSAVNPEKDIHSGLIGPLLICQKGILHKDSNMPMDMREFVLLFMTFDEKKSWYYEKKSRSSWRLTSSEMKKSHEFHAINGMIYSLPGLKMYEQEWVRLHLLNIGGSQDIHVVHFHGQTLLENGNKQHQLGVWPLLPGSFKTLEMKASKPGWWLLNTEVGENQRAGMQTPFLIMDRDCRMPMGLSTGIISDSQIKASEFLGYWEPRLARLNNGGSYNAWSVEKLAAEFASKPWIQVDMQKEVIITGIQTQGAKHYLKSCYTTEFYVAYSSNQINWQIFKGNSTRNVMYFNGNSDASTIKENQFDPPIVARYIRISPTRAYNRPTLRLELQGCEVNGCSTPLGMENGKIENKQITASSFKKSWWGDYWEPFRARLNAQGRVNAWQAKANNNKQWLEIDLLKIKKITAIITQGCKSLSSEMYVKSYTIHYSEQGVEWKPYRLKSSMVDKIFEGNTNTKGHVKNFFNPPIISRFIRVIPKTWNQSIALRLELFGCDIY
